Source: patent publication US20220119518A1 (KUMHO HT, published 2022)

T1: CD66c (Cluster of Differentiation 66c) on cells (UniProt P40199 35-320, limits assumed)
T1 construct: whole, on cells; also called CEACAM6; CEACAM 6
T1 sequence (looked up): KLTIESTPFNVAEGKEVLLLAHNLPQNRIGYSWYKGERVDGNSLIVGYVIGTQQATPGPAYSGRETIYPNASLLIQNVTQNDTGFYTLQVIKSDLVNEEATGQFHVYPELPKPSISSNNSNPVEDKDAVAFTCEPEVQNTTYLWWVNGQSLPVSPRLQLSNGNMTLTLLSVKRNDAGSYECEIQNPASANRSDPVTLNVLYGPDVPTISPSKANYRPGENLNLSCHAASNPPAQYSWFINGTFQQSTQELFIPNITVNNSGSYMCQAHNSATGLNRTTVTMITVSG

T2: Antigen CD66c (CEACAM6; Sino Biological, Inc.) (UniProt P40199 35-320)
T2 construct: Bought antigen, coated on the ELISA plate; construct not described; also called CECACAM6 (CD66c) antigen; CD66c antigen
T2 sequence (looked up): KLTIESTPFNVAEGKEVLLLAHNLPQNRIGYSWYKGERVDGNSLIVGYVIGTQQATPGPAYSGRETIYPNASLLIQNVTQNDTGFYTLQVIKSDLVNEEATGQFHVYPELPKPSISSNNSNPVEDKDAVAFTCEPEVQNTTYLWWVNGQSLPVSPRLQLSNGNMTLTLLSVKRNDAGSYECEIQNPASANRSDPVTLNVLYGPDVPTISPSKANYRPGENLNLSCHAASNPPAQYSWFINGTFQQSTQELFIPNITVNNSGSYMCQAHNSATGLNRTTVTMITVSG


What was measured:
[1] = molecular target: T1, CD66c (Cluster of Differentiation 66c) …; test: flow cytometry on CD66c-positive A549 cells, FITC anti-human IgG
Description: Each expressed 96 recombinant humanized antibody was poured and reacted in a test tube containing the same amount […] of CD66c-positive A549 non-small-cell lung cancer cell line at 4° C. for 30 minutes, washed with PBS, and treated with FITC-conjugated goat anti-Huma IgG (DiNona Inc, Korea) was added and incubated at 4° C. for 15 minutes. After washing with PBS, the cells were analyzed with a flow cytometer (Stratedigm, S1000EXi) and the results are shown below.
Among the 96 recombinant humanized antibody candidates, eight were firstly selected based on the degree of expression, the presence of aggregation, and the degree of cell binding (Table 9 and Table 10, FIGS. 3A to 3E).

[2] = molecular target: T2, Antigen CD66c (CEACAM6; Sino …); test: ELISA, CEACAM6 coated 100 ng/well, antibody at 3333.33 ng/ml
Description: (§1) Antigen CD66c (CEACAM6; Sino Biological, Inc.) and CEACAM1 antigen (Sino Biological, Inc.) were coated on a 96-well plate at a rate of 100 ng per well and then blocked. The primary antibody was diluted 3-fold from 10 ug/ml and bound at 37° C. for 1 hour. […] goat anti-Human Ig-HRP conjugate (Jackson ImmunoResearch) as a secondary antibody was diluted 1:10,000 and incubated at 37° C. for 30 minutes. The washing was carried out at three times between each step, and the TMB reaction was performed, stopped with 1N H₂SO₄ solution at the same amount of TMB solution (100 ul) and then OD value was measured at 450 nm.
(§2) As a result of the experiment, the binding affinities to CD66c antigen of the five kinds of recombinant humanized antibodies selected from among 96 kinds of recombinant humanized antibodies are shown in FIG. 4a, Table 12, FIG. 4b and Table 13. FIG. 4a and Table 12 show the binding capacity of the antibodies to CECACAM6 CD66c) antigen, and FIG. 4b and Table 13 are the results for the CEACAM1 (CD66a) antigen.

[3] = molecular target: T2, Antigen CD66c (CEACAM6; Sino …); test: ELISA, CEACAM6 coated 100 ng/well, antibody at 1.52 ng/ml
Description: as §1, §2

[4] = molecular target: T2, Antigen CD66c (CEACAM6; Sino …); test: ELISA, CEACAM6 coated 100 ng/well, antibody at 370.37 ng/ml
Description: as §1, §2

[5] = molecular target: T2, Antigen CD66c (CEACAM6; Sino …); test: ELISA, CEACAM6 coated 100 ng/well, antibody at 0.51 ng/ml
Description: as §1, §2

[6] = molecular target: T2, Antigen CD66c (CEACAM6; Sino …); test: ELISA, CEACAM6 coated 100 ng/well, antibody at 123.46 ng/ml
Description: as §1, §2

[7] = molecular target: T2, Antigen CD66c (CEACAM6; Sino …); test: ELISA, CEACAM6 coated 100 ng/well, antibody at 13.72 ng/ml
Description: as §1, §2

[8] = molecular target: T2, Antigen CD66c (CEACAM6; Sino …); test: ELISA, CEACAM6 coated 100 ng/well, antibody at 0.17 ng/ml
Description: as §1, §2

[9] = molecular target: T2, Antigen CD66c (CEACAM6; Sino …); test: ELISA, CEACAM6 coated 100 ng/well, antibody at 4.57 ng/ml
Description: as §1, §2

[10] = molecular target: T2, Antigen CD66c (CEACAM6; Sino …); test: ELISA, CEACAM6 coated 100 ng/well, antibody at 10000.00 ng/ml
Description: as §1, §2

[11] = molecular target: T2, Antigen CD66c (CEACAM6; Sino …); test: ELISA, CEACAM6 coated 100 ng/well, antibody at 1111.11 ng/ml
Description: as §1, §2

[12] = molecular target: T2, Antigen CD66c (CEACAM6; Sino …); test: ELISA, CEACAM6 coated 100 ng/well, antibody at 41.15 ng/ml
Description: as §1

% (% gated × mean), against the chimeric antibody [1] [%] | % gated [1] [%] | Mean (fluorescence) [1] | OD 450 nm [2] [OD 450 nm] | OD 450 nm [3] [OD 450 nm] | OD 450 nm [4] [OD 450 nm] | OD 450 nm [5] [OD 450 nm] | OD 450 nm [6] [OD 450 nm] | OD 450 nm [7] [OD 450 nm] | OD 450 nm [8] [OD 450 nm] | OD 450 nm [9] [OD 450 nm] | OD 450 nm [10] [OD 450 nm] | OD 450 nm [11] [OD 450 nm] | OD 450 nm [12] [OD 450 nm] | Binder
85 | 71 | 541 |  |  |  |  |  |  |  |  |  |  |  | recombinant humanized anti-CD66c antibody Protein ID 3004 (Vk7 + VH5) (antibody, human IgG1, V domains shown, also called #41) VH: QVQLVQSGAEVKKPGASVKISCKASGYSFTDYTMNWVRQAHGQNLEWIGLINPFHGGTVSNQRFKVKATLTVDVSTNTAYMELSRLRSDDTAVYYCVRGDPVRHYYALAYWGQGTLVTVSS VL: DIQMTQSPSTLSASVGDRVTITCGASENVYGTLNWYQRKPGKAPKLLIYGATNLADGVPSRFSGSGSGTEYTLTISSLQPDDFATYYCQNVLSAPYTFGGGTKLEIK
85.8 | 70 | 554 |  |  |  |  |  |  |  |  |  |  |  | recombinant humanized anti-CD66c antibody Protein ID 3010 (Vk7 + VH7) (antibody, human IgG1, V domains shown, also called #45) VH: QVQLVQSGAEVKKPGASMKISCKASGYSFTDYTMNWVRQAPGQGLEWIGLINPFHGGTVSNQRFKVKATLTVDVSTNTAYMELSRLRSDDTAVYYCVRGDPVRHYYALAYWGQGTLVTVSS VL: DIQMTQSPSTLSASVGDRVTITCGASENVYGTLNWYQRKPGKAPKLLIYGATNLADGVPSRFSGSGSGTEYTLTISSLQPDDFATYYCQNVLSAPYTFGGGTKLEIK
86.9 | 70 | 561 | 3.26 | 0.95 | 3.23 | 0.8 | 3.04 | 1.77 | 0.68 | 1.32 | 3.13 | 3.34 | 2.45 | recombinant humanized anti-CD66c antibody Protein ID 3019 (Vk7 + VH10) (antibody, human IgG1, V domains shown, also called hu 3019; #51) VH: QVQLVQSGAEVKKPGASVKVSCKASGYSFTDYTMNWVKQAPGQNLEWIGLINPFHGGTVSNQRFKVKATMTVDVSTNTAYMELSRLRSDDTAVYYCVRGDPVRHYYALAYWGQGTLVTVSS VL: DIQMTQSPSTLSASVGDRVTITCGASENVYGTLNWYQRKPGKAPKLLIYGATNLADGVPSRFSGSGSGTEYTLTISSLQPDDFATYYCQNVLSAPYTFGGGTKLEIK
82.2 | 71 | 523 |  |  |  |  |  |  |  |  |  |  |  | recombinant humanized anti-CD66c antibody Protein ID 3046 (Vk8 + VH7) (antibody, human IgG1, V domains shown, also called #74) VH: QVQLVQSGAEVKKPGASMKISCKASGYSFTDYTMNWVRQAPGQGLEWIGLINPFHGGTVSNQRFKVKATLTVDVSTNTAYMELSRLRSDDTAVYYCVRGDPVRHYYALAYWGQGTLVTVSS VL: DIQMTQSPSTLSASVGDRVTITCRASENVYGTLNWYQRKPGKAPKLLIYGATNLADGMPSRFSGSGSGTEYTLTISSLQPDDFATYYCQNVLSAPYTFGGGTKLEIK
